In PMC2893456, “Structural definition and substrate specificity of the S28 protease family: the crystal structure of human prolylcarboxypeptidase” (BMC Structural Biology, 2010):

Biological target: the molecule itself
Assay: crystal structure; 2.8 Å, MIRAS; space group R32, one molecule in the asymmetric unit, dimer formed across a two-fold crystallographic symmetry axis; crystals from 1.8 M ammonium sulfate, 0.1 M HEPES, pH 7.5, 1-2% PEG 400

B1: human prolylcarboxypeptidase (PRCP) (enzyme)
chain: KNYSVLYFQQKVDHFGFNTVKTFNQRYLVADKYWKKNGGSILFYTGNEGDIIWFCNNTGFMWDVAEELKAMLVFAEHRYYGESLPFGDNSFKDSRHLNFLTSEQALADFAELIKHLKRTIPGAENQPVIAIGGSYGGMLAAWFRMKYPHMVVGALAASAPIWQFEDLVPCGVFMKIVTTDFRKSGPHCSESIHRSWDAINRLSNTGSGLQWLTGALHLCSPLTSQDIQHLKDWISETWVNLAMVDYPYASNFLQPLPAWPIKVVCQYLKNPNVSDSLLLQNIFQALNVYYNYSGQVKCLNISETATSSLGTLGWSYQACTEVVMPFCTNGVDDMFEPHSWNLKELSDDCFQQWGVRPRPSWITTMYGGKNISSHTNIVFSNGELDPWSGGGVTKDITDTLVAVTISEGAHHLDLRTKNALDPMSVLLARSLEVRHMKNWIRDFYDS
modifications: N-linked glycans at Asn 101, 317, 336, 345 and 415 (Asn 47 not glycosylated); disulfide bridges 215-372, 233-310, 264-343, 364-394
notes: prolylcarboxypeptidase (PRCP), human
binding result: binds
